A short description of the data set: protein stability index of a GFP-peptide fusion (GPS, HEK-293T) (PSI 1-6); higher = more stable.
Setting [1] is: treatment: DMSO, c terminus: a fixed tail appended.
[2] abbreviates: treatment: MLN4924 1 uM, 8 h, c terminus: a fixed tail appended.
[3] abbreviates: treatment: DMSO, c terminus: native.
Setting [4] is: treatment: MLN4924 1 uM, 8 h, c terminus: native.

± gives the standard deviation.
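Note: 24-mer peptide tiles fused after GFP, lentivirally expressed, FACS-sorted into six equal bins by GFP/DsRed ratio, decoded by Illumina sequencing, PSI is the read-weighted mean bin number.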

On to GSALTFREEQCAAYNHRTDLFKSF [ADAMTS4], for which the protein stability index runs as follows: under setting [1], 2.97 ± 0.17; under setting [2], 2.88 ± 0.22.
The matching figures for GSRPACQLQVPTLRQQCAQVLRNN [ELOA2]: 4.43 ± 0.14 and 4.51 ± 0.3.
For GSSLSGSLCSLLESQSTSLRGSYN [LURAP1L], in that order: 3.07 ± 0.14 and 2.87 ± 0.29.
On to GSTAITPGTPPSYSSRTPGTPGTP [MAP2], for which the protein stability index reads like this: under setting [1], 4.87 ± 0.2; under setting [2], 4.98 ± 0.11.
As to GTLIGVGQSVTAVGRIIAPLLSGV [MFSD9], the protein stability index under setting [1] was 2.03 ± 0.17 and the protein stability index under setting [2] worked out at 2.2 ± 0.29.
GVPQIWEKIHEMVKKNSAKSMGLK [ACSBG2]: the protein stability index reads like this: under setting [1], 2.09 ± 0.21; under setting [2], 2.53 ± 0.046.
The matching figures for GYGRDRDYSDHPSGGSYRDSYESY [RBMX]: 3.91 ± 0.2 and 3.462 ± 0.032.
For GYRDYGHSRRHESYSRGYSYHDGY [RBMY1A1], in that order: 2.64 ± 0.25 and 2.61 ± 0.45.
As for GYSMNFNMSSSRGPLPVKRGPPPR [RBMX], the protein stability index by setting is: under setting [1], 3.16 ± 0.23; under setting [2], 3.82 ± 0.72.
For HARLRLSADRLTVRCGLLGSLGPV [TRIM14], in that order: 2.2 ± 0.65 and 2.31 ± 0.3.
As for HCHIEESEHVLKKAHKYSELIILY [VPS39], the protein stability index amounted to 2.21 ± 0.33 under setting [1] and 2.12 ± 0.3 under setting [2].
For the sequence HFFGDKALKKRSGKKDKHSQSPRA [PBXIP1], the protein stability index under setting [1] was 4.09 ± 0.36 and the protein stability index under setting [2] turned out to be 4.33 ± 0.45.
As to HFSRLCGPESPPPPYSRLSPRDEY [SMAD6], the protein stability index under setting [1] was determined as 3.42 ± 0.07 and the protein stability index under setting [2] was determined as 3.56 ± 0.17.
In the case of HGHMCIAFELLGKNTFEFLKENNF [CLK3], the protein stability index was 2.55 ± 0.87 under setting [1] and 2.92 ± 1.3 under setting [2].
Sequence HGLQEGKDLFTQRQNSAPARMLSS [CDC25A] came in with a protein stability index under setting [1] of 4.4 ± 0.18 and a protein stability index under setting [2] of 4.46 ± 0.15.
For HHFFCDIAPVLKLASHHNHFSQIV [OR10K2], in that order: 2.45 ± 0.45 and 2.67 ± 0.55.
For HHVADAYTSSQKVSPIQIDGAGRT [TOR1AIP2], in that order: 3.53 ± 0.21 and 3.74 ± 0.46.
For HINSISVNSDYETYMSADDLRINL [PPP2R2B], in that order: 3.15 ± 0.46 and 3.2 ± 0.54.
Turning to HKIKHKHILAKNYFSQVPVLASFI [IQUB], the protein stability index by setting is: under setting [1], 2.34 ± 0.37; under setting [2], 2.32 ± 0.55.
For HLEEPGETQNAFLNERKQASAIKK [CHGB], in that order: 5.11 ± 0.14 and 5.2 ± 0.28.
The matching figures for HQGIKPYKCSWCGKSFSQNTNLHT [ZNF75A]: 2.1 ± 0.002 and 2.52 ± 0.25.
The matching figures for HQTQLLYQASAMMVESRYALLIVD [RAD51]: 3.17 ± 0.74 and 2.8 ± 0.66.
Take HSFVLVTSLGLTYDGMLSDVQSMP [MAGEA10]: the protein stability index under setting [1] was 2.83 ± 0.53 and the protein stability index under setting [2] turned out to be 2.88 ± 0.47.
The matching figures for HSMHKYQPRIHLVRAAQLCSQHWG [TBX6]: 2.14 ± 0.2 and 2.22 ± 0.3.
For HSPSCLARVTGELTMTFPAGIVRV [FCHO1], in that order: 2.53 ± 0.44 and 2.67 ± 0.76.
For HSYCRMFLQRGADTNLGRLEDGQT [ASB7], in that order: 2.73 ± 0.44 and 2.85 ± 0.48.
With HSYLSGYISLLLRAEPYPTSRFGS [NR2F2], the protein stability index is, setting by setting: under setting [1], 3.06 ± 0.33; under setting [2], 2.85 ± 0.2.
HTPGTPKSAILVPSEKKVAIIRTP [MAP2] displayed a protein stability index under setting [1] of 3.96 ± 0.057 and a protein stability index under setting [2] of 4.02 ± 0.2.
The matching figures for HTTRSSLRGPRERAPSERSGPAAS [DVL3]: 5.15 ± 0.24 and 4.75 ± 0.31.
The matching figures for HWRECLFYPALWPQLRICLRVSPA [FBXO33]: 2.42 ± 1.1 and 2.61 ± 0.78.
Consider HYAVNSQFTMGGPAISMASPMSIP [CARM1], for which the protein stability index is 2.63 ± 0.21 under setting [1] and 2.78 ± 0.24 under setting [2].
The matching figures for HYVAQTGILWLLMNNCFLNLSPRK [GAGE1]: 2.72 ± 0.38 and 3.584 ± 0.027.
For HYYLMDDTVEIREVHERNDGIDPF [EFHC1], in that order: 3.92 ± 0.18 and 3.86 ± 0.32.
The matching figures for IAGDEGTQIPADEDTQTDADSSAQ [TAF7L]: 5.58 ± 0.27 and 5.45 ± 0.31.
For IDDLEDDPVVNGERSGCALTDAVA [TCF25], the protein stability index is, setting by setting: under setting [1], 5.3 ± 0.19; under setting [2], 5.37 ± 0.11.
Take IEDEDQILENSSQKENVFKCDSLK [FAN1]: the protein stability index under setting [1] is 5.07 ± 0.1 and the protein stability index under setting [2] came out at 5.01 ± 0.35.
Regarding IEPRERAKFKRKYKVKLVEKRAFR [NOP53], the protein stability index runs as follows: under setting [1], 2.87 ± 0.14; under setting [2], 3.15 ± 0.32.
Take IERSSSFSSITDSTMSLNIITVTL [DVL3]: the protein stability index came out at 2.8 ± 0.42 under setting [1] and 2.85 ± 0.23 under setting [2].
For IETSALDSTNVEEAFKNILTEIYR [RAB11B], in that order: 2.41 ± 0.14 and 2.79 ± 0.29.
For IGLGHIYSGTFALIGAAAFLGGVV [CLCN6], in that order: 2.94 ± 0.19 and 3.27 ± 0.7.
Turning to IGRDPPAETQPQNPPAQPAPNAWQ [CLPTM1], the protein stability index by setting is: under setting [1], 5.21 ± 0.31; under setting [2], 5.02 ± 0.25.
In the case of IIKQIPVEQMTKEERQAAQNECQV [NEK8], the protein stability index was 4.93 ± 0.19 under setting [1] and 4.75 ± 0.24 under setting [2].
The matching figures for IKCFHEIITIGYNVYHSYDLPWFR [CDS2]: 2.21 ± 0.12 and 2.31 ± 0.33.
The matching figures for IKEAKEQHPDMSVTKVVVHKETEI [EPB41L3]: 5.23 ± 0.14 and 5.02 ± 0.21.
As for IKMAMVACGDAFTVAIGAESEVYS [NEK8], the protein stability index runs as follows: under setting [1], 2.57 ± 0.78; under setting [2], 2.57 ± 0.5.
Take ILDICEDNVPDPKDVKERFSGSLV [TMEM175]: the protein stability index was 3.83 ± 0.19 under setting [1] and 4.06 ± 0.13 under setting [2].
The matching figures for ILFLPCLRKKILKIRHGWEDVTKI [STEAP1]: 2.95 ± 0.39 and 2.46 ± 0.42.
The matching figures for ILIREAQNQPIDKARKTYERLVAQ [CSTF3]: 2.83 ± 0.2 and 2.82 ± 0.11.
The matching figures for ILKHTPKEHPDVQLLEDAILIIQG [NET1]: 2.12 ± 0.27 and 1.99 ± 0.35.
As to ILTADLYSLFVGLFLFGYKFSGLY [SLC35F2], the protein stability index came to 2.45 ± 0.49 under setting [1] and 3.27 ± 0.19 under setting [2].
In the case of INEDLKTCSRVDYCLLSDHGCEYS [MATN2], the protein stability index under setting [1] is 3.41 ± 0.21 and the protein stability index under setting [2] was 3.35 ± 0.33.
The matching figures for INILQNEKSHQVLAQLLDTLLAIG [INTS4]: 2.43 ± 0.31 and 2.17 ± 0.2.
The matching figures for IPGHGGIMDRFDCQYLMATFVNVY [CDS2]: 3 ± 0.46 and 2.54 ± 0.51.
Regarding IPRENAQISLDGDVTFFGALKLL [TNFSF13B], the protein stability index was determined as 2.71 ± 0.24 under setting [3] and 2.73 ± 0.46 under setting [4].
For IPYNAKFLGSTEVEQPKGTEVVRD [GULP1], the protein stability index worked out at 4.7 ± 0.44 under setting [1] and 4.69 ± 0.23 under setting [2].
Turning to IQRIRSEIENVKKQASNLETAIAD [KRT71], the protein stability index turned out to be 4.42 ± 0.29 under setting [1] and 4.61 ± 0.31 under setting [2].
The matching figures for IRQLQEQHYQQYMQQLYQVQLAQQ [ACBD3]: 2.23 ± 0.29 and 2.43 ± 0.24.
In the case of IRTANCTTANQNCVNKSKLLTDV [KCNA1], the protein stability index worked out at 3.19 ± 0.13 under setting [3] and 3.35 ± 0.28 under setting [4].
IRVPSVPPVPCVPSVPCTPAPQVG [KRT36]: the protein stability index runs as follows: under setting [1], 3.45 ± 0.27; under setting [2], 3.57 ± 0.25.
Consider ISGLRFETQLKTLAQFPNTLLGNP [KCNA1], for which the protein stability index runs as follows: under setting [1], 2.46 ± 0.23; under setting [2], 2.41 ± 0.11.
The matching figures for ITEALRPAGVGVVVEATHMCMVMR [GCH1]: 2.11 ± 0.38 and 2.29 ± 0.33.
For ITESYQTLHPISSEELLSLKYEND [ETS1], in that order: 4.81 ± 0.095 and 4.85 ± 0.22.
For IVSHFQKLFDVPSLNGVYPRMNEV [CEP70], in that order: 2.46 ± 0.82 and 2.56 ± 0.53.
For the sequence IYQQLSRYRGLGLLASVPSNPNGN [CRY1], the protein stability index reads like this: under setting [1], 2.4 ± 0.28; under setting [2], 2.74 ± 0.29.
For IYVHILKDTRMAEEYCHKHYDRNK [VPS39], in that order: 2.19 ± 0.39 and 2 ± 0.28.
Sequence KADTLKERYQKIGDTKRATPIEVL [CSNK1G3] had a protein stability index under setting [1] of 3.88 ± 0.18 and a protein stability index under setting [2] of 4.01 ± 0.32.
For KAEILESVIKNYEDHFPLLFSEAS [MAGEA10], in that order: 3.06 ± 0.38 and 3.19 ± 0.51.
Turning to KALGSDLDSSLASLVGNLGISGTT [SNAP91], the protein stability index came to 3.94 ± 0.2 under setting [1] and 3.93 ± 0.15 under setting [2].
For KDHSCKDNIREAFQIYDKEASGYV [EFHC1], in that order: 3.72 ± 0.31 and 3.81 ± 0.13.
For KDSYSSRDYPSSRDTRDYAPPPRD [RBMX], in that order: 4.08 ± 0.24 and 4.09 ± 0.6.
The matching figures for KEDTLLLIAEVMGEDIPEKIKDEV [C8orf76]: 4.35 ± 0.49 and 4.22 ± 0.38.
Regarding KEFILTDEEVQRKREMILKRKEEE [VDR], the protein stability index by setting is: under setting [1], 5.33 ± 0.23; under setting [2], 5.38 ± 0.23.
